Source: EP4682166A1 (Guangzhou Enmai Biotechnology Co., Ltd, dated 2026)

T1: NMI-flag overexpressed protein (293T cells transfected with the hNMI-flag plasmid) (human) (UniProt Q13287)
T1 sequence (looked up): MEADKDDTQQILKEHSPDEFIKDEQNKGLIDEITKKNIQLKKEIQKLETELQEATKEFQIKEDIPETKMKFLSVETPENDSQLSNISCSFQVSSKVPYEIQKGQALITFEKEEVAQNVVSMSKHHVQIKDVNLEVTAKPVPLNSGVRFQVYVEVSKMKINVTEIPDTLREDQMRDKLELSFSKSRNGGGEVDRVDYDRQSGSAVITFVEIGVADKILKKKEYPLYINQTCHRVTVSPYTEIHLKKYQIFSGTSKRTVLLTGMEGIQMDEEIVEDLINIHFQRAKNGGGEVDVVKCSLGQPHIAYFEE

T2: human NMI (N-myc Interacting protein) (human) (UniProt Q13287)
T2 sequence (looked up): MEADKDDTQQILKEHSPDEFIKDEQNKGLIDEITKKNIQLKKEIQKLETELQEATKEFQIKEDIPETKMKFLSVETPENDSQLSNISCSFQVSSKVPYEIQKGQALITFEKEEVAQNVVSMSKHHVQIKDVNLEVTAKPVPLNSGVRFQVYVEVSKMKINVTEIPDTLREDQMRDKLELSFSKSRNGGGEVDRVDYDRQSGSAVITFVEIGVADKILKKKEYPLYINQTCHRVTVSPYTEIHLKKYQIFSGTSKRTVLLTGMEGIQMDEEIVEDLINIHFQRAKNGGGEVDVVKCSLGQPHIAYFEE


Experiments:
[1] = biological target: T1, NMI-flag overexpressed protein (293T cells transfected with the hNMI-flag plasmid) (human); test: sandwich ELISA; detection 94C4-1-biotin; cell lysates of NMI-flag 293T, replicate 2
[2] = biological target: T1, NMI-flag overexpressed protein (293T cells transfected with the hNMI-flag plasmid) (human); test: sandwich ELISA; detection 94C4-1-biotin; cell supernatant of NMI-flag 293T, replicate 1
[3] = biological target: T2, human NMI (N-myc Interacting protein) (human); test: magnetic-bead chemiluminescent sandwich, kit of Example 8-1; capture 98G10 beads, detection acridinium-B-8; series 1, hNMI 6000 pg/mL
[4] = biological target: T2, human NMI (N-myc Interacting protein) (human); test: magnetic-bead chemiluminescent sandwich; capture 98G10 beads (1.0 mg 98G10), detection acridinium-B-8; hNMI 1000 pg/ml
[5] = biological target: T2, human NMI (N-myc Interacting protein) (human); test: magnetic-bead chemiluminescent sandwich; capture 98G10 beads (1.0 mg 98G10), detection acridinium-B-8; hNMI 400 pg/ml
[6] = biological target: T2, human NMI (N-myc Interacting protein) (human); test: magnetic-bead chemiluminescent sandwich, kit of Example 8-1; capture 98G10 beads, detection acridinium-B-8; series 2, hNMI 50 pg/mL
[7] = biological target: T2, human NMI (N-myc Interacting protein) (human); test: magnetic-bead chemiluminescent sandwich; capture 98G10 beads, detection acridinium-B-8 (2.0 mg B-8 labelled); hNMI 1000 pg/mL
[8] = biological target: T2, human NMI (N-myc Interacting protein) (human); test: magnetic-bead chemiluminescent sandwich, kit of Example 8-1; capture 98G10 beads, detection acridinium-B-8; series 2, hNMI 7500 pg/mL
[9] = biological target: T2, human NMI (N-myc Interacting protein) (human); test: magnetic-bead chemiluminescent sandwich, kit of Example 8-1; capture 98G10 beads, detection acridinium-B-8; series 2, hNMI 10000 pg/mL

OD450 [1] [OD450]	OD450 [2] [OD450]	Signal value [3]	Signal value [4]	Signal value [5]	Signal value [6]	Signal value [7]	Signal value [8]	Signal value [9]	Binder
2.9	0.897	–	–	–	–	–	–	–	monoclonal antibody B-8 (antibody, V domains shown, Rabbit monoclonal antibody; also called B8-1) VH: QSLEESGGDLVKPGASLTLTCTASGFSFSSSYYMCWVRQAPGKGLEWIACIYAGSSGSTYYASWAKGRFTISKTSSTTVTLQMTSLTAADTATYFCAREYSYDDYGDFWGFNLWGPGTLVTVSS VL: ALVMTQTPSSVSAAVGGTVTINCQASQNIYTNLAWYQQKPGQPPKLLIYGASNLESGVPSRFKGSGSGTEYTLTISDLECDDAATYYCQSSLYSRIADRANAFGGGTEVVVK
–	–	414000	201000	86800	6180	116000	900000	1.19e+06	acridinium ester-labeled monoclonal antibody B-8 (antibody, V domains shown, acridinium ester label on the antibody, site not stated) VH: QSLEESGGDLVKPGASLTLTCTASGFSFSSSYYMCWVRQAPGKGLEWIACIYAGSSGSTYYASWAKGRFTISKTSSTTVTLQMTSLTAADTATYFCAREYSYDDYGDFWGFNLWGPGTLVTVSS VL: ALVMTQTPSSVSAAVGGTVTINCQASQNIYTNLAWYQQKPGQPPKLLIYGASNLESGVPSRFKGSGSGTEYTLTISDLECDDAATYYCQSSLYSRIADRANAFGGGTEVVVK
